Assay: soluble on expression in E. coli; label from the status in PepcDB or PDB records

| Sequence | soluble on expression in E. coli |
| --- | --- |
| MPSTRCAHQMSTKKKAERVDNMIAFLKSAVQAQKEKGAQAEQAPGNAMMTSKLLEIWSVPQSTITEMRLLLTLGADPTPLFKDDFGEKTLADRIDNGSVCEECAEMYERTPIQINRSKKVDGVMALCLDGGGMRGLVSVVCLLYASRRLLGDETLPNLFDWFIGTSTGSMLALSMVNKISISECFFQYWDMKSQIFLRGSTVKRLLGDQVAVQTKNIDKVLGDCFPTQTLQECPTRLTIPALDISTAPARLHVFRNYSFTKPFGAPLNEDQDVLFREAARASSAAPTYFEPFIYGNKVLVDGSFVANYPLNVLFKEYDSFSKHQQPIHLAGVLSIGTGEPALAERKYKSGKSIRAKAMNIGHLSTLILEQVVGQDLTAVEMAQDRCHAHNIPFNRLSPKGISVRIDQIDDSKLMDMIWTTLIYLTENVHEIDQLGEMIYKLKSDPTERKRRSNTVL | not soluble |
| MPTASPIYDVVVVGAGISGLIATQLLDRAGLNIKCFEACSRVGGRAVSVQQSDLFLDLGATWFWLNEPLVQQLVNNLGLGTFPQAIEGDALFETLVDAPSRLRGNPIDAASGRFQAGASSLALGLAAQLKPGVLELGDPVHSLSEEDGEIVVKSSKQIVRAKHVIIAVPPALAAELIGFTLDLPADVRKAAHPQHIAVMNWAKEKYTLPTQAASAGGFGHELFQQPLGHGRIHWASTEVATEFGGHLEGAVRAGIQAALQTGFNLKSLEHHHHHH | soluble |
| MPVDRGAVRDAAKYLRGVRPLDPAALREYVPGQPHEAVVRQVLREQAADLGIIERADGTFVVPPEEPVGPPFNGVSALPERYERVVEAELTAAYGPDWHRGDTGDSLRETIRRFKDDYYRRNPVEYDREVALGYAVYHLAGYYAAVQYVLAGLARDGLLGHDLRVLDLGAGVGGPAVGLFDFLPDEALVEYHAVEPSAAADVLDALLAETPRNVHTTIHRETAESFQPAGEYDLVLACSVLSELDDAASVLRKYADAMAADGTALALAPADKHTSTHLRAVERAVEDDPFTVYGPTPRLWPDRRPTDSGWSFDERPAVEVPAVQSRLADASQDPGEFRHTDVRFSYSLLRRDDRRRHAVELSGDRLLALGDADDRVTDRADLLVAKLSRNLAGADANPVFRVSDGSQTTDCYAVLVRPTSLNGGIEAADYGDLVSIEDALVLWNDDEDAYNLVVDEETVVDAV | not soluble |
| MPVELKSFDEFVKVVERAVECRVKRGKDVVKIKARTKRYLYTLKVPPEKEAEVLEQVKAKCKNLVELLEHHHHHHLEHHHHHHLEHHHHHHLEHHHHHHLEHHHHHHLEHHHHHHLEHHHHHH | not soluble |
| MPVKLATALSNNLFPALDSQLRAGRHIGIEELENHVFLMDFQEVLEEFYSRYNVELIRAPEGFFYLRPRSTTLIPRSVLSELDMMVGKILCYLYLSPERLAHEGIFSQQELYEELLSLADESKLLKLVNQRSTGSDLDRQKLQEKVRTSLNRLRRLGMIYFMGNDSSKFRITESVFRFGADVRSGDDAREAQLRMIRDGEAMPVEGSLSLKDDSDDNDRTDDTAPETGEDELEHHHHHH | not soluble |
| MPVLHNRISNDALKAKMLAESEPRTTISFYKYFHIADPKATRDALYQLFTALNVFGRVYLAHEGINAQISVPASNVETFRAQLYAFDPALEGLRLNIALDDDGKSFWVLRMKVRDRIVADGIDDPHFDASNVGEYLQAAEVNAMLDDPDALFIDMRNHYEYEVGHFENALEIPADTFREQLPKAVEMMQAHKDKKIVMYCTGGIRCEKASAWMKHNGFNKVWHIEGGIIEYARKAREQGLPVRFIGKNFVFDERMGERISDEIIAHCHQCGAPCDSHTNCKNDGCHLLFIQCPVCAEKYKGCCSEICCEESALPPEEQRRRRAGRENGNKIFNKSRGRLNTTLGIPDPTE | not soluble |
| MPVNNENLTSVLDARPFELSEEQKSPLFKANLLAELVHHYQCNEMYRKFCQKNKFDPLVFDGEVADIPPIPVHIFKAIGHKLSSVSDDTIKAKLQSSATSGVPSTILLDKVTARRQTRAMARVMQEVLGPKRRPFCIMDIDPTSPNATNLGARIAAVKGYLNFASTSKYFIDADSPSAPLEFLEQKFVEHLNSLASEEPLIIFGFTFVLYHTVFKTLKDKGISFQLPKGSQVIHIGGWKKLESEKVDKITFNRDIASVLGISPDDVVDIYGFTEQMGLNYPDCKAGWKHIHAYSDVIIRDESNLEVCGPGKVGLLEFVSPLPHSYPGNVVLTDDLGVIEESLCECGKAGKRFKVIGRAKKAEVRGCGDVMSEKLTKKPSYKPLSQQEERLTIYHSPIFLDDTMLEHHHHHH | soluble |
| MPYTFENSEALLKNLKDAAPYISAAERFASFKGFVYDKRINIACTSEKLARAGFYSTASPEFPASAKCPFCMLEINFEQCDDPWEKHKSGSPHCEFVMIGEIEESELSFRIISNLAIRHATVRLYEELLGIVATLENGDIANENPITRADATRKLISFRSSSKLLTFDHRLATFQNFIFDKKRNVKCTSKKLAKAGWFSIANKKDKTSAKCPFCLVELDFDESDDPWEEHQKFSASCDFIKLGKLDEKKWTENEALMLGARITIMQKYEKGSWLIDELEKENRIDEIIKIRKIMIKPNHVLKRRRCSI | not soluble |
| MPYYTNDDNDVDDFTEYDPMPYSGGYDITVTYGRSIPPSDETCYPLSSLSGDAFEYQRPNFSSNHDSSAYDDQALKTEYSSYARPGPVGSGSDFGRKPNSGYGGRTEVEYGRKTESEHGSGYGGRIESDYVKPSYGGHEDDGDDGHKKHSGKDYDDGDEKSKKKEKEKKKDKKKDGNNSEDDEFKKKKKKEQYKEHHDDDDYDEKKKKKKDYNDDDEKKKKKHYNDDDDEKKKKHNYNDDDDEKKKKKEYHDDEDKKKKKHYDNDDDEKKKKKDHRDDDDEKKKKKDKHHKGHD | soluble |
| MQAKVHVKKGDTVLVASGKYKGRVGKVKAVLPRKMAVIVEGVNLVKKAVRPSPKHPQGGFVEQEAPLHASKVRPICPACGKPTRVRKKFLEDGRKIRACAKCGGSLDVEELEHHHHHH | not soluble |
| MQAVGLITEYNPLHNGHRYHLRQAQQLTNADCVIVVMSGDWLQRGEPAILDKWTRAKLALENGADLVIELPVFFATQPAHLFARGGIELLSALDCTSVVFGAEHPELDFQRLATAIAARQGSFTHYNATFATQFNAALQAATGVTLTAANDMLSFCYYAANQTLAHPMQLLPIKRRQADHATTTIAADSRYASGTAVRQAALAQDWAALKPVVPADTFTALTTQRLQ | not soluble |
| MQDEVETEVIIKDIFKQGKICFIPQYQFQSNHMDMVRLTSPEEIALLPKTSWNIHQPGEGDVREEALSTGGLDLIFLPGLGFDKDGNRLGRGKGYYDTYLKRCVQHQEVKPYTMALAFKEQICPQIPVDEHDMKVDEVLYEDSPAS | soluble |
| MQDLEAELERARELDVATLADAIETIGFECTRCGACCKSEADDPHTATVFPDEVRDVQAAAGAETDRDWRDVARPMPYGLDEDGAGETFEWALQADSCGDCTFYREDDDGTGACSVHGSRPLICQTYPFSVALGGTSQPMGEAVDEAGMVRAHECEGLGRDISRADAEELAGALKARAIRELEEAIDVREAYAPANPEPGATVVHDSEGAKRPDGSAYPNAAALEHHHHHH | not soluble |
| MQDLSFSTIENHLGPAKDRFFGDGFKHVEYSARHVNLTESEANASISLSYPANWSKKNDSGELIPHLSSIDALTISINLSQDILLNRFKSIDHCWVRRISIRAGKKPEEDLRNINAKITKESQGLDSQGDTNLIFGGNVGTMTVQLEFIIPAAHEVDTIKDSTEKNCYSLHFKNRTQFIDDIIFYSPLNAISKLFVANDNEPHFLPGGIEANYPNIINPVDSLVSHAQIAQALLYKLDGLTRGESNTLWMRNLNIIAENPAKRRAATRLLVTELKRANIVSLKGENWRVAEVAGHMNGITFSSSVAHLLPL | not soluble |
| MQDRQKAQDYRALLLADTPLIDVRAPIEFEQGAMPGAINLPLMMDDERAAVGTCYKRQGADAALALGHRLVCGDIRQQRLEAWKAAYQRFPNGYLCCARGGQRSHIVQRWLQETGIDCPLIEGGYKALRQTAIQATWQLAQKPILLIGGCTGSGKTQLVRQQPNGVDLEGLARHRGSSFGRTLNPQLSQASFENKLAVELLKINARQTLKRWVLEDEGRTIGANHLPECLRERMAQAPIAVVEDPFALRLERLREEYFIRMHHDFTHAYGDEAGWQAYSEYLHHGLFAIRRRLGLQRFAELTDTLDRALAEQLSSGSTDGHMAWLVPLLNEYYDPMYRYQLEKKAANIVFRGTWQDVANWLKAQ | not soluble |

Source: the DeepSol protein solubility set
